Tests used:
[1] = substrate: CC(C)(COP(=O)(O)OP(=O)(O)OC[C@H]1O[C@@H](n2cnc3c(N)ncnc32)[C@H](O)[C@@H]1OP(=O)(O)O)[C@@H](O)C(=O)NCCC(=O)NCCSC(=O)c1ccc(F)cc1; assay: continuous spectrophotometric assay, dithionite-reduced methyl viologen as electron donor; type: biochemical, Thauera aromatica; details: ATP-dependent, 30°C, enriched enzyme
[2] = substrate: CC(C)(COP(=O)(O)OP(=O)(O)OC[C@H]1O[C@@H](n2cnc3c(N)ncnc32)[C@H](O)[C@@H]1OP(=O)(O)O)[C@@H](O)C(=O)NCCC(=O)NCCSC(=O)c1ccccc1; assay: as above; type: biochemical, Thauera aromatica; details: ATP-dependent, 30°C, enriched enzyme

B1: 4-F-BCR / class I benzoyl-CoA reductase (BCR, BcrABCD) (Thauera aromatica) (protein)
chain 1: SAKTNPEVIKESSMVKQKEMIAGNYDRLTGTKESGEKVVSTFVPGNLNELIMCFDMVNNLPETNAIQNGMRKQSGGMIMDAEKAGHSEDVCTYVKADIGMMGRGNIAPNGKPMPAPDMLLLSYTGCFTFMKWFELLRHEYKCPTVMLQIPYQGDGKITKNMRDFVVKQLKEEVIPMFEQVSGVKFDIDRLREYLKNSAKAEDDLVWVLESAKNRPSPIDAYFGGVYYIGPMFTAFRGTADAVEYYGLLRGEIEQRIREGKGPITPEGDMKEEKYRLVVEGPPNWTSFREFWKLFYDEGAVVVASSYTKVGGLYDQGFRHDPNDPLGTLADYCLGCYTNNNLPQRVELLEKYMNEYQADGLLINSIKSCNSFSAGQLLMMREIEKRTGKPAAFIETDLVDPRYFSHANVKNRLESYFQMVDQKRSGASLATA
chain 2: STADIIARCEALYEDLDFTAARQWKEADPSRKVIAYMPVYVPREIIHAAGMLPLGIMGGGDGLEVIHGDAFYQSYICRIPRSTIELGLSKRMDFVDGMLFPSICDVIRNLSGMWKLMFPGKYVRYFDVPQNYRDDVGGNYYTAELNELREGLEHLSGRKITDDALRASIKVYNENRKLVQDVYGLRSREPWKVPSADVYLLMRAGLVLPVEEHNQMLKDYLAAAVKVEAQKRDNCRVIINGSFCEQPPLNLIKSIELSGCYIVDDDYMIVHRFLRNEVSTAGDPMQNLSLAFLHESISTAAKYDDKEEDKGKYLLEQVRTNAAEGVIFAAPSFCDPALLERPMLADRCSENKVPYISFKYAENSGQMQPIREQAGTFADSIKLWS
notes: native enzyme enriched from 4-fluorobenzoate-grown cells, heterotetramer of four subunits BcrABCD, no tag; with Benzoyl-CoA reductase subunit A; Benzoyl-CoA reductase subunit D
**Q.** Which results are given for B1?
**A.** Km [1]: 97 µM; Km [2]: 43 µM
